Protease stability score data for 33 sequences are collected here from the NTF2 design screens of Basanta et al. (2020).

The nature of the data set: protease stability score; higher = more stable; yeast display proteolysis, trypsin and chymotrypsin.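 Note: relative to predicted unfolded state with 0 unfolded-like and 1 meaning tenfold more protease.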
“NHDEEHLKRLLEDEREMLETGNEDEIRRLLDPHVRLDIDGRNIHGREEVAKWMVKLALRVDVFIIRVKRFHIQGDYIYFDTHIEEIVNGQHISFDVMIIIWKYNGRWLIHSIIVR”: the protease stability score is 1.58.
Under “NHDEEKTHEFKEKWMKDVTTGNEEEISKLMDPNAKIVVNGREYHGREKMWETIHRLLKILGISRVEVRIESVHIYDGRIEIHMRVHAENHESHIIVHVEKIDGRWSSKHLRID” stands 0.968.
Regarding “NHEEEERHETFRIFLESVRTGDWKNTEKLLDPNARQVWNGKVLHGRESVIEVMRELRVDSLDVKSFDIQGEKAIMHGESEGVFNGKRLNMTLETHLVKVDGKWFLRELVII”, the protease stability score is 1.23.
Under “NHEEEHAKTLFEEWLRVLLTGDWKMFSHLADPHTRIHIGNKDIHGRDLFVELVIRELEEIRVILIVEELSAQGDKSRMRTRLIIRQGEFEHRTELRLEIVFVDGKFTSIHLRHK” stands 0.599.
Under “NHLEEVKDLAIELSWKLMHTGNEELSDRNADPNTRLEFNGVEFVGREWFRQFISEMGVKHIRIDDIDMFDGRMRLDGTFNFNGQEIKVTVFTRKVDGRWRIKSLKFD” stands 1.6; under “NHQQIAFHFLWDIVEYLLMTGDEHILEKYADPTVKTLVDGRELHGREDVIRFFHEMFKRIDHIQDVKLHDYRFQGNKVEIDSRIIGTIDGQRDVITVTWRVLKVDGRWLIHTVELH”, 1.69; under “NKHERDAEHFIKEWWHDVHTGDEDHYLKRLDPNMRVDINGQEFHGREKVLTFFHEHSRHLGIDHLIIDHVRIRVQGNKIEEEVEGENVFNGKRLEVRFHFVARKIDGRWELEHLTVRIS”, 0.724.
With “NKMDEYAYKMLELWLEAFLTGDFEFIEKNLDPHVRSRINGVELIGRHLYLEMVRREMEEIRVKDVHPRRVEIIDGVVHFHGEWNGQVNGRETHKEHEVEIIVVNGRLKSVIFRIR” the figure was 1.27.
“NKMMEEIHHWLRLLIENEITGDEEKSLHLADPEARIDFDGVEIHGWERFLKFVEEKLKLLGARVEDIKIHDYRIIDGRLHIDSRVHIEINGVRQTREREIVSRKVNGRWLVNSLHFR” gave a protease stability score of 0.607.
With “NMDEKLKRWAIEDHIKSDETGDENMKEHYMDPNVRIDIGDYELHGREAAIRDIRRIRHEMGVKVMHVEIEHVDVQGEKIRIHSRLIFEINGKEVRHETNIIYSKFDGRWVLKHESIK” the figure was 0.102; with “NREDRELEDFIWEILEAWRTGDEDEHHRLLDPHTRHHFNGRVSHGREMVEYIFKQFDHIHRFEYRDFSVQGNKAHVFAQVDVRIGDKIITFDVTIEVEKVNGRWVLRELSIH”, 1.31.
Consider “QDIDHQLERAVKEILETFITGDESLASHLFDPDVRVIQGDKHIHGREEVTKVFYEFVKRADHVEIRMREVESQGDIIDIETELILRIGDKEVRHRVRLIVVKYNGKWHIKSMEVD”, for which the protease stability score turned out to be 2.72.
“QEDEDFVRWALHVFMRYVLTGDEESLERLLDPDVRITVGNKHLHGMENATNELRHMSKQVDHIHDLRFHDVRSINGRIHETGIDDGIINGRRIHRESILVIEKVNGRWHFHSIRVL” gave a protease stability score of 0.836.
With “QEDEKLADEVVERIAHDIHTGDEDSLRHLMDPHVRLQVGDKRYIGRESVLEFLRQLRIEVEDVKIHDIHVVNGQMHSDTRIHGRIFVNGRDIETTLRSKHILLKYDGKWLWHSWHIH” the figure was 1.31.
The sequence “QEDRERAERIINELMENELTGDEDRLRELADPRVRVEYDGQEHIGMELRSTWIKEMRFDHIHVDIDEFEFQGNKIHIKARFHIDVNINGRKRRYTVETFLVMKKINGVWFIKDIVFH” came in with a protease stability score of 1.36.
For “QEEEEFVRKFVHEVIRALMTGDEHRMHELLDPHVISSRHIGDKHVHYHGREEVLRHLHEWLTHLRIKSLEIRSHKAFDGRMIVHGTLFGQQGDKDVEFEVIIDLEVINGRIKHFHVELR”, the protease stability score is 1.32.
Turning to “QEELDIAREMIKMWTHHLETGDEEVTKHLADPTTRFIIDGVTYHGMHNTVRLWLEIRSHSRIRIRFVEVQGNKVNSDVELEYDLIVGEKTDTIIRRSHLYLHKVDGRWRIKEIEFR”, the protease stability score is 1.12.
In turn, “QEYDEHIEELWRDFVHAMITGDEDRLSELMDPDTRILVGDKHLVGWDRALRFLHEHIREIRPTDFKLRDIRFFDGRIHVDTEMRLVVNGQEVHKKTHLIVYKYDGRWHIEAIIEH” yielded a protease stability score of 2.24.
On to “RDEDEVVDHIARLIVEAWRTGDEDWLKKMADPNVKQHIHIDGKTEINHGREEMIHQLERLHRKLGVDHHHLKSSTVIGDKIKIHMEERIGDFSIFVHVEFIVINGRMKEIRISIERE”, for which the protease stability score came out at 0.931.
The sequence “RDEDHELKEMRRMIHEIIMTGDEDKWKKMADPHVQLHIGDKHHHGRDHVSRILTELRVHHFDVEHIHHEFINGRATLRIEGTLHGIINGVEKKVETEIRIIIIKFNGVWYIESQEFHVI” yielded a protease stability score of 0.492.
With “RDEDRDRHHAWREFERIMLTGDWRESEKLIDPHVRLDIDGRRHHGMEIYSTLLYHISTRADHIRVILDDIKVQGEKVEVDTIIDIHVGDKHIHIKTHIVASKINGRWFLHSLKID” the figure was 0.929.
“RDEEEEARRMMEIFLEDVRTGDEDSLKELADPNVKSEINGVELVGREEVLKTLREILRELGVSNVEVRLHRIHVYDGRAHIDGRLNVNGRELEMHVDMEKVDGRWRIRRIELR” returned a protease stability score of 2.27.
In turn, “RDEEEYAHRVLELWRFILETGDEDTLYELADPNVRFKFLQGNKEIHRHGRERMVEEIRTRREELGVKHIHLEHVEVWNGVVHLRVVVHFNGKELRSRIIIVVIDGVIKEIEIREE” had a protease stability score of 1.04.
In turn, “RDEESHLKHLAERIMKSWETGDEHTLRHLFDPNTRSHVEVGDKRWSFIGMENFDRWFRELHEEMGANHTTVHDTKIQGNKLTMDTRLLVGDKEIRTRLIFHIVDGRITHIIIKLE” registered a protease stability score of 1.31.
For “RDIEEINKRALESWKHALETGDEDTMEELLDPHVRVEDEHEMHHGRSAFHLWIKRVDHFRSLHIRETRIVGDKVDNNVEVDGTINGQDRLIEIRLVLVKFNGKWKFRSIHFK”, the protease stability score stood at 1.38.
Under “RDIRELTLMMTKLIRKTDKTGDPRIAHELADPHYRFDFDGVEYHGREIVQHWMEKYPNVRFKVRHVDIVGDKARIEGTDNVDGQEIDTEYRVSKVDGRWHLEEIIFR” stands 0.487; under “RDKERMVHFIANYVLHSVLTGDWKMLFDLLDPSMRLEIGEKDSHGRENAEKLLHEFLEKLGADHTDIRRSHVTFQGDKIIIIINTEIDINGVRHEIWVRVIILKIDGKWVLESIRIEIR”, 1.54; under “RDLDEIARHVIELWKETYETGDERHLRELLDPNMRVEVNGVESHGREEMMKHMVKYAREIRITEIIDRDTDSQGNKLHIHGEIIVEQGDKKHRYTLDVTFFVVDGRIKHLHFRSK”, 1.2.
Under “RDMEHIMKELIHFVLHAVMTGDEEKMRQYADPHVKLNYNGVEVVGMEEILKIWRHIRIEIEDHTVEHISVVDGKLRSDTRVDVHIEFNGRHIRENLHTHVIIYKVDGRWVFKEVRIK” stands 1.84; under “RDSEEKDKIFLSIVESAILTGDPETSEKMADPNVRIDFNGKDLVGREDYHRFVKRWLEEARFHKLVIHELRHVDGRMDSHTQEIVDIDGRRYTHDTHIIMLKIDGRWILHSKTVR”, 0.986; under “RDTEETVENASKRWVRTMETGDEDVLHRLLDPHVRVEAENHEIHGREIVSTHIREILEKLGMTIHIHLKDVRVQGNKAEIDMHIEYIIDGRITSHDYTLINRKINGRWLVERVIIN”, 0.31.
In turn, “RDVEHLLEKWMEDHMEALHTGDEDRIHELLDPHVRVHIDGVNLHGRERAVEFMVRSLRELGIKHIKLDVEDVEVQGEKVIIDLRVNLDYDGREHRDKEIIILLKIDGKWVIEEVRRG” returned a protease stability score of 1.07.
For the sequence “REDDEMSEEANRLLHELVRTGDFEQLIKNMDPNTRLRQGDKHFHGREEYEKHWRELLERAGLERVELHIDDIRVFNGVAHINGTLRIGDKVMEVRLILTKFNGKWIFTSMEIH”, the protease stability score is 1.26.
